2 molecules from patent US20130005646A1 (Novo Nordisk, published 2013) can be followed below.

Holding throughout (experiment): cell-based or functional assay
Assay [1] deals with T1, human amylin 3(a) receptor (human calcitonin receptor + RAMP-3) (human, UniProt P30988 25-474; O60896 24-148).
T1 sequence (looked up) 1: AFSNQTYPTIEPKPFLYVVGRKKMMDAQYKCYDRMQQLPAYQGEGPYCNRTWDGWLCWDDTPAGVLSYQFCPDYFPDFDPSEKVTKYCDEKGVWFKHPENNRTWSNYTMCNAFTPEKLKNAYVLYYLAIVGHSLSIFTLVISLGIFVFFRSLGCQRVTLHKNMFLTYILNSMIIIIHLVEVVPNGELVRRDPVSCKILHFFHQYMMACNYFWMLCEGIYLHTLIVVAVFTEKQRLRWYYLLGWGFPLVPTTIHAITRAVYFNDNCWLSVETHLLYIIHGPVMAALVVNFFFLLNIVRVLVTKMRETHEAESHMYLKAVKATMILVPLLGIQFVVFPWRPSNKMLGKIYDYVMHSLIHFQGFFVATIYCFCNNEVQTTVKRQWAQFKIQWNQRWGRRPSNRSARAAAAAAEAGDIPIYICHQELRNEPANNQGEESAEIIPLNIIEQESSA
T1 sequence (looked up) 2: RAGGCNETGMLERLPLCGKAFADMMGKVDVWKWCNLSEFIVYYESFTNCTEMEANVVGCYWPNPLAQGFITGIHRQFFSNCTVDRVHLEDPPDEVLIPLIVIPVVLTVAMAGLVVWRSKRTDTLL

For assay [2], the target named is T2, human calcitonin (a) receptor (human, UniProt P30988 25-474).
T2 sequence (looked up): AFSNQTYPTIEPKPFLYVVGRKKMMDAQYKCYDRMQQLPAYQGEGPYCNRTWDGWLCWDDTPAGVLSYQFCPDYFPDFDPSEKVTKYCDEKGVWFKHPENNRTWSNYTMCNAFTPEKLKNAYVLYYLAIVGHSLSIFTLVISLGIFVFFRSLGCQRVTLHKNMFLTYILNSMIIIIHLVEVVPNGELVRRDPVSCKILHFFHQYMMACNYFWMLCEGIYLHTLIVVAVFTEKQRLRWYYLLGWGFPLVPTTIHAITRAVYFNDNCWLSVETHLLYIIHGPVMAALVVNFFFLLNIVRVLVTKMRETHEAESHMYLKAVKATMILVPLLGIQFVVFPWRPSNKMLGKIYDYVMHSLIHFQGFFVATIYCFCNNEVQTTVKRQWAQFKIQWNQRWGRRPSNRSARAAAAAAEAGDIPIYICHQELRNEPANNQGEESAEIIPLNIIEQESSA

Assay [3] concerns the target T3, rat amylin 3(a) receptor (rat calcitonin(a) receptor + rat RAMP3) (rat, UniProt P32214 25-516; Q9JJ73 23-147).
T3 sequence (looked up) 1: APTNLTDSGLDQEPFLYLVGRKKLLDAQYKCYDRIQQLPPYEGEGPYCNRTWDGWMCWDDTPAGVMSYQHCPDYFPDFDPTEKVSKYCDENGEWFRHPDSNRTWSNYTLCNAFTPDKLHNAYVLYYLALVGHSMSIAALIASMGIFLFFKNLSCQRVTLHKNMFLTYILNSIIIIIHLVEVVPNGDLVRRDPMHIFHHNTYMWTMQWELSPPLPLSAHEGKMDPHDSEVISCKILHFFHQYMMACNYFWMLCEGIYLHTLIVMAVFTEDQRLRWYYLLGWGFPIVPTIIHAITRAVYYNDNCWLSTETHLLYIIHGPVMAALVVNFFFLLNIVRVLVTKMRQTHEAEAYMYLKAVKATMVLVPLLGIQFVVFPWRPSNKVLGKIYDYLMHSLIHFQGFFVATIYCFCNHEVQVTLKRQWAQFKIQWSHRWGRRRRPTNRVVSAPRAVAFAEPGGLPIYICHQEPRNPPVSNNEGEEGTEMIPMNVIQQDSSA
T3 sequence (looked up) 2: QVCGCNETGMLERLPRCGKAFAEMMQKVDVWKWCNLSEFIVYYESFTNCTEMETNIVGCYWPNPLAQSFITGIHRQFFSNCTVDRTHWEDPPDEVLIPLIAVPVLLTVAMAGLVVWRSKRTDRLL

For assay [4], the target named is T4, rat calcitonin (a) receptor (rat, UniProt P32214 25-516).
T4 sequence (looked up): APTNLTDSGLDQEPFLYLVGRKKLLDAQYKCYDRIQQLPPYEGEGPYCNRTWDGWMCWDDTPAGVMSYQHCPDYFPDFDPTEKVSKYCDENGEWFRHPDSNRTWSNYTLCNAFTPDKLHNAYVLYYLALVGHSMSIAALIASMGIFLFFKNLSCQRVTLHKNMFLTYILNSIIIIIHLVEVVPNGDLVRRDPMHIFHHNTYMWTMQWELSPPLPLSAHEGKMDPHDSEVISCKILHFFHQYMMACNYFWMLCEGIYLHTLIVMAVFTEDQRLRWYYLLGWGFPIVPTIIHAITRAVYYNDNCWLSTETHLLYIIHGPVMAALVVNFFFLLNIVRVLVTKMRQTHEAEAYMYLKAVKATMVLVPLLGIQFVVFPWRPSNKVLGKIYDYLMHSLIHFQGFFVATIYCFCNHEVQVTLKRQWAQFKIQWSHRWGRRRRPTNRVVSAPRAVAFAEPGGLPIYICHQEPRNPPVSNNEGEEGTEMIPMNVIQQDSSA

Starred links: 1 amine or outer side, 2 acyl side, 3 side chain; linkers in the order of their positions; H or OH if unused. Positions of bridges follow the written chain, without caps; N, C: chain ends. *: point of attachment. C20 diacid = O=C(O)CCCCCCCCCCCCCCCCCCC(=O)*; γGlu = O=C(O)[C@H](CCC(=O)[*:2])N[*:1]

B1: N-alpha-[(S)-4-Carboxy-4-(19-carboxynonadecanoylamino)butyryl]-His-[His1,Glu14,His17]-pramlintide (peptide)
peptide: {C20 diacid-γGlu}-HHCNTATCATQRLAEFLHHSSNNFGPILPPTNVGSNTY-NH2
modifications: disulfide 3-8
SMILES: CC[C@H](C)[C@H](NC(=O)[C@@H]1CCCN1C(=O)CNC(=O)[C@H](Cc1ccccc1)NC(=O)[C@H](CC(N)=O)NC(=O)[C@H](CC(N)=O)NC(=O)[C@H](CO)NC(=O)[C@H](CO)NC(=O)[C@H](Cc1c[nH]cn1)NC(=O)[C@H](Cc1c[nH]cn1)NC(=O)[C@H](CC(C)C)NC(=O)[C@H](Cc1ccccc1)NC(=O)[C@H](CCC(=O)O)NC(=O)[C@H](C)NC(=O)[C@H](CC(C)C)NC(=O)[C@H](CCCNC(=N)N)NC(=O)[C@H](CCC(N)=O)NC(=O)[C@@H](NC(=O)[C@H](C)NC(=O)[C@@H]1CSSC[C@H](NC(=O)[C@H](Cc2c[nH]cn2)NC(=O)[C@H](Cc2c[nH]cn2)NC(=O)CC[C@H](NC(=O)CCCCCCCCCCCCCCCCCCC(=O)O)C(=O)O)C(=O)N[C@@H](CC(N)=O)C(=O)N[C@@H]([C@@H](C)O)C(=O)N[C@@H](C)C(=O)N[C@@H]([C@@H](C)O)C(=O)N1)[C@@H](C)O)C(=O)N[C@@H](CC(C)C)C(=O)N1CCC[C@H]1C(=O)N1CCC[C@H]1C(=O)N[C@H](C(=O)N[C@@H](CC(N)=O)C(=O)N[C@H](C(=O)NCC(=O)N[C@@H](CO)C(=O)N[C@@H](CC(N)=O)C(=O)N[C@H](C(=O)N[C@@H](Cc1ccc(O)cc1)C(N)=O)[C@@H](C)O)C(C)C)[C@@H](C)O
B1: the “Amylin receptor human EC50” value in assay [1] amounted to 0.111 nM. Further, the “CTa receptor human EC50” value in assay [2] was found to be 0.166 nM. The “Amylin receptor rat EC50” value in assay [3] came out at 0.147 nM. For the same molecule, the “CTa receptor rat EC50” value in assay [4] is 0.221 nM.

B2: N-alpha-[(S)-4-Carboxy-4-(19-carboxynonadecanoylamino)butyryl]-[His1,Glu14,His17,Arg18,Ser21,Ser22,Asp31,Asp35]-pramlintide (peptide)
peptide: {C20 diacid-γGlu}-HCNTATCATQRLAEFLHRSSSSFGPILPPTDVGSDTY-NH2
modifications: disulfide 2-7
SMILES: CC[C@H](C)[C@H](NC(=O)[C@@H]1CCCN1C(=O)CNC(=O)[C@H](Cc1ccccc1)NC(=O)[C@H](CO)NC(=O)[C@H](CO)NC(=O)[C@H](CO)NC(=O)[C@H](CO)NC(=O)[C@H](CCCNC(=N)N)NC(=O)[C@H](Cc1c[nH]cn1)NC(=O)[C@H](CC(C)C)NC(=O)[C@H](Cc1ccccc1)NC(=O)[C@H](CCC(=O)O)NC(=O)[C@H](C)NC(=O)[C@H](CC(C)C)NC(=O)[C@H](CCCNC(=N)N)NC(=O)[C@H](CCC(N)=O)NC(=O)[C@@H](NC(=O)[C@H](C)NC(=O)[C@@H]1CSSC[C@H](NC(=O)[C@H](Cc2c[nH]cn2)NC(=O)CC[C@H](NC(=O)CCCCCCCCCCCCCCCCCCC(=O)O)C(=O)O)C(=O)N[C@@H](CC(N)=O)C(=O)N[C@@H]([C@@H](C)O)C(=O)N[C@@H](C)C(=O)N[C@@H]([C@@H](C)O)C(=O)N1)[C@@H](C)O)C(=O)N[C@@H](CC(C)C)C(=O)N1CCC[C@H]1C(=O)N1CCC[C@H]1C(=O)N[C@H](C(=O)N[C@@H](CC(=O)O)C(=O)N[C@H](C(=O)NCC(=O)N[C@@H](CO)C(=O)N[C@@H](CC(=O)O)C(=O)N[C@H](C(=O)N[C@@H](Cc1ccc(O)cc1)C(N)=O)[C@@H](C)O)C(C)C)[C@@H](C)O
On to B2, for which the “Amylin receptor human EC50” value in assay [1] was found to be 0.212 nM. For the same molecule, in assay [2], the “CTa receptor human EC50” value stood at 0.208 nM. The “Amylin receptor rat EC50” value in assay [3] stood at 0.331 nM. Besides, in assay [4], the “CTa receptor rat EC50” value is 1.73 nM.
